The numbers were not newly measured in paper PMC7339208, which cites them from elsewhere.

One data set has as its target IL-2 (Homo sapiens) (UniProt P60568).
In the next data set the target is IL-15 (Homo sapiens) (UniProt P40933).
Sequence of UniProt P40933 (P40933 49-162): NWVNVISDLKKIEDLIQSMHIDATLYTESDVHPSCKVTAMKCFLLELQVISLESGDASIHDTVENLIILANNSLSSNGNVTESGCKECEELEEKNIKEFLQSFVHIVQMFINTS

Sequence of UniProt P60568 (P60568 21-153): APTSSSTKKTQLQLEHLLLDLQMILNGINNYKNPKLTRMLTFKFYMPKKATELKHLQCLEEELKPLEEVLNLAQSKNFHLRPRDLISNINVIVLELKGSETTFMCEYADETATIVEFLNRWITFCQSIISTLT

Consider IL-2Rα (from UniProt P01589), for which the Kd with IL-2 (Homo sapiens) was 10 nM.
IL-15Rα (from UniProt Q13261): the Kd with IL-15 (Homo sapiens) was 0.1 nM.
